According to patent publication US20200140526A1 (UNIVERSITY OF ROCHESTER, published 2020):

Assays:
[1] = molecular target: T1, recombinant (r)HA of pH1N1 A/California/04/2009 (Protein Sciences Corp.) (influenza A virus A/California/04/2009 …, UniProt P26140 18-529)
[2] = molecular target: T1, recombinant (r)HA of pH1N1 …; remark: listed apart in the source

B1: KPF1 human monoclonal antibody (hmAb) (antibody, V domains shown)
VH: EVQLLESGGGLVQPGGSLRISCAASGSTFGDFAMSWVRQSPGRGLEWVSVTSAGGDRTYYADSVKGRFTISRDNSKNTLYLQMNSLRGEDTAMYYCARLDSSGFHYGRPGRNWGQGTLVTVSS
VL: DIQMTHSPPSLSASVGDRITITCQASQDISYYLIWYQQKPGKAPKPLIYDASNLEAGVPSRFSASGSGTDFTLTISSLQPEDLATYYCQQYKSLPYTFGQGTKLEIK
B1 showed a koff [1] of 3.42e-05 s⁻¹, a kon [1] of 192000 M⁻¹ s⁻¹ and a Kd [2] of 0.178 nM.
